Article PMC10786891, “Massively parallel profiling of RNA-targeting CRISPR-Cas13d”

T1: EsCas13d, nuclease-dead (Eubacterium siraeum, UniProt B0MS50, R295A;H300A;R849A;H854A)
T1 sequence: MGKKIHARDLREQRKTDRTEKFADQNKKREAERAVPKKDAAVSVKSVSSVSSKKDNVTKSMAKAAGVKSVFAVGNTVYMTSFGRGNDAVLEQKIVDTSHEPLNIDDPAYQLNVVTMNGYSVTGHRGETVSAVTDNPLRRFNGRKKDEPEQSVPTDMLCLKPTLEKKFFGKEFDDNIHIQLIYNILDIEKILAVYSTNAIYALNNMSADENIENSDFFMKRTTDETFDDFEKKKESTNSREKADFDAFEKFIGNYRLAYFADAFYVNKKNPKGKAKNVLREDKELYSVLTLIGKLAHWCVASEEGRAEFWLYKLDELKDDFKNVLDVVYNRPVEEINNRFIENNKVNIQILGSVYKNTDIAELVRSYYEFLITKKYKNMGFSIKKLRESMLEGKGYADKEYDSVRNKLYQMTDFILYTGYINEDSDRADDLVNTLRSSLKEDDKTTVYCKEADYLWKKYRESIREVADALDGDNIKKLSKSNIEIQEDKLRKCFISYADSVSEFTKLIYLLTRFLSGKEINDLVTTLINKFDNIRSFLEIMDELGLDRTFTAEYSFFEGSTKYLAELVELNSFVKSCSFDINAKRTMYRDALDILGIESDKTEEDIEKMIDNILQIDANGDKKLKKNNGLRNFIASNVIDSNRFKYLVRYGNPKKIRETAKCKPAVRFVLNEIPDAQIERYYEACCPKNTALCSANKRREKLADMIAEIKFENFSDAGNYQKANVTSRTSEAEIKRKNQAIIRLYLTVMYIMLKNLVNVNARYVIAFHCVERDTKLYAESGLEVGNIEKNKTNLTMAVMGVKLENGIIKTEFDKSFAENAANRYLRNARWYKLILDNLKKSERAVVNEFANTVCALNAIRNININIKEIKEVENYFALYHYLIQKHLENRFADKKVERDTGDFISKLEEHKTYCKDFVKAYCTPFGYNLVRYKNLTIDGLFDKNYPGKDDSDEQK


Target: T1, EsCas13d, nuclease-dead
Assay: crRNA (strand 1, pre-loaded); Mg2+; 40 mM Tris-HCl pH 7.5, 150 mM NaCl, 6 mM MgCl2, 1 mM DTT, 0.1% Tween-20, 0.2 mg/ml BSA; 25 C; 10 min per concentration, then washed
Settings: tags: His6-TwinStrep-SUMO cleaved; N-terminal SNAP kept (SNAP-Surface 488); label: 3' end held by stalled T7 RNA polymerase

| Binder | Kd |
| --- | --- |
| target 1 insA 3' of 21,insU 3' of 13 (mixed) RNA 1: CACCCGUGCAAAAAUGCAGGGGUCUAAAACUGAGCGGAUAACCUCUCUAUGG RNA 2: GGGAAUGGAUCCACAUCUACGAAUUCGUACCAAUAGAGAGUGUUAUCCGCUCACCGAGAUCGGAAGAGCACACGU | 26 ± 9 nM |
| target 1 U3G,U19A (mixed) RNA 1: CACCCGUGCAAAAAUGCAGGGGUCUAAAACUGAGCGGAUAACCUCUCUAUGG RNA 2: GGGAAUGGAUCCACAUCUACGAAUUCGUACCAAAGAGAGGUUAUCCGCGCACCGAGAUCGGAAGAGCACACGU | 45 ± 10 nM |
| target 2 MT 5'PFS GUU 3'PFS CUU (mixed) RNA 1: CACCCGUGCAAAAUUGCAGGGGUCUAAAACCUUCUCCAAAUUGUUUCAUCCU RNA 2: GGGAAUGGAUCCACAUCUACGAAUUCGUUAGGAUGAAACAAUUUGGAGAAGCUUAGAUCGGAAGAGCACACGU | 16.6 ± 1.6 nM |
| target 2 MT 5'PFS GAG 3'PFS CUA (mixed) RNA 1: CACCCGUGCAAAAUUGCAGGGGUCUAAAACCUUCUCCAAAUUGUUUCAUCCU RNA 2: GGGAAUGGAUCCACAUCUACGAAUUCGAGAGGAUGAAACAAUUUGGAGAAGCUAAGAUCGGAAGAGCACACGU | 7.9 ± 1.1 nM |
| target 2 MT 5'PFS GCA 3'PFS UCU (mixed) RNA 1: CACCCGUGCAAAAUUGCAGGGGUCUAAAACCUUCUCCAAAUUGUUUCAUCCU RNA 2: GGGAAUGGAUCCACAUCUACGAAUUCGCAAGGAUGAAACAAUUUGGAGAAGUCUAGAUCGGAAGAGCACACGU | 27 ± 12 nM |
| target 2 MT 5'PFS GAG 3'PFS CUC (mixed) RNA 1: CACCCGUGCAAAAUUGCAGGGGUCUAAAACCUUCUCCAAAUUGUUUCAUCCU RNA 2: GGGAAUGGAUCCACAUCUACGAAUUCGAGAGGAUGAAACAAUUUGGAGAAGCUCAGAUCGGAAGAGCACACGU | 11.3 ± 1.2 nM |
| target 2 MT 5'PFS AGU 3'PFS AUU (mixed) RNA 1: CACCCGUGCAAAAUUGCAGGGGUCUAAAACCUUCUCCAAAUUGUUUCAUCCU RNA 2: GGGAAUGGAUCCACAUCUACGAAUUCAGUAGGAUGAAACAAUUUGGAGAAGAUUAGAUCGGAAGAGCACACGU | 12.1 ± 2.1 nM |
| target 2 MT 5'PFS CUU 3'PFS UCA (mixed) RNA 1: CACCCGUGCAAAAUUGCAGGGGUCUAAAACCUUCUCCAAAUUGUUUCAUCCU RNA 2: GGGAAUGGAUCCACAUCUACGAAUUCCUUAGGAUGAAACAAUUUGGAGAAGUCAAGAUCGGAAGAGCACACGU | 4.8 ± 0.5 nM |
| target 2 MT 5'PFS GGU 3'PFS CUC (mixed) RNA 1: CACCCGUGCAAAAUUGCAGGGGUCUAAAACCUUCUCCAAAUUGUUUCAUCCU RNA 2: GGGAAUGGAUCCACAUCUACGAAUUCGGUAGGAUGAAACAAUUUGGAGAAGCUCAGAUCGGAAGAGCACACGU | 17.8 ± 1.9 nM |
| target 2 MT 5'PFS CUU 3'PFS UCU (mixed) RNA 1: CACCCGUGCAAAAUUGCAGGGGUCUAAAACCUUCUCCAAAUUGUUUCAUCCU RNA 2: GGGAAUGGAUCCACAUCUACGAAUUCCUUAGGAUGAAACAAUUUGGAGAAGUCUAGAUCGGAAGAGCACACGU | 8.1 ± 0.8 nM |
| target 2 MT 5'PFS GGU 3'PFS CUA (mixed) RNA 1: CACCCGUGCAAAAUUGCAGGGGUCUAAAACCUUCUCCAAAUUGUUUCAUCCU RNA 2: GGGAAUGGAUCCACAUCUACGAAUUCGGUAGGAUGAAACAAUUUGGAGAAGCUAAGAUCGGAAGAGCACACGU | 12.6 ± 1.4 nM |
| target 2 MT 5'PFS AGU 3'PFS AUA (mixed) RNA 1: CACCCGUGCAAAAUUGCAGGGGUCUAAAACCUUCUCCAAAUUGUUUCAUCCU RNA 2: GGGAAUGGAUCCACAUCUACGAAUUCAGUAGGAUGAAACAAUUUGGAGAAGAUAAGAUCGGAAGAGCACACGU | 10.3 ± 1.5 nM |
| target 2 MT 5'PFS AAG 3'PFS CAU (mixed) RNA 1: CACCCGUGCAAAAUUGCAGGGGUCUAAAACCUUCUCCAAAUUGUUUCAUCCU RNA 2: GGGAAUGGAUCCACAUCUACGAAUUCAAGAGGAUGAAACAAUUUGGAGAAGCAUAGAUCGGAAGAGCACACGU | 3.4 ± 0.5 nM |
| target 2 MT 5'PFS GAG 3'PFS CUG (mixed) RNA 1: CACCCGUGCAAAAUUGCAGGGGUCUAAAACCUUCUCCAAAUUGUUUCAUCCU RNA 2: GGGAAUGGAUCCACAUCUACGAAUUCGAGAGGAUGAAACAAUUUGGAGAAGCUGAGAUCGGAAGAGCACACGU | 8.1 ± 0.8 nM |
| target 2 MT 5'PFS CAU 3'PFS UAU (mixed) RNA 1: CACCCGUGCAAAAUUGCAGGGGUCUAAAACCUUCUCCAAAUUGUUUCAUCCU RNA 2: GGGAAUGGAUCCACAUCUACGAAUUCCAUAGGAUGAAACAAUUUGGAGAAGUAUAGAUCGGAAGAGCACACGU | 4 ± 0.4 nM |
| target 2 MT 5'PFS AGG 3'PFS ACG (mixed) RNA 1: CACCCGUGCAAAAUUGCAGGGGUCUAAAACCUUCUCCAAAUUGUUUCAUCCU RNA 2: GGGAAUGGAUCCACAUCUACGAAUUCAGGAGGAUGAAACAAUUUGGAGAAGACGAGAUCGGAAGAGCACACGU | 6.7 ± 0.6 nM |
| target 2 MT 5'PFS CUU 3'PFS UCC (mixed) RNA 1: CACCCGUGCAAAAUUGCAGGGGUCUAAAACCUUCUCCAAAUUGUUUCAUCCU RNA 2: GGGAAUGGAUCCACAUCUACGAAUUCCUUAGGAUGAAACAAUUUGGAGAAGUCCAGAUCGGAAGAGCACACGU | 8.2 ± 0.5 nM |
| target 2 MT 5'PFS UGG 3'PFS UUC (mixed) RNA 1: CACCCGUGCAAAAUUGCAGGGGUCUAAAACCUUCUCCAAAUUGUUUCAUCCU RNA 2: GGGAAUGGAUCCACAUCUACGAAUUCUGGAGGAUGAAACAAUUUGGAGAAGUUCAGAUCGGAAGAGCACACGU | 19.2 ± 2.8 nM |
| target 2 MT 5'PFS CUU 3'PFS UCG (mixed) RNA 1: CACCCGUGCAAAAUUGCAGGGGUCUAAAACCUUCUCCAAAUUGUUUCAUCCU RNA 2: GGGAAUGGAUCCACAUCUACGAAUUCCUUAGGAUGAAACAAUUUGGAGAAGUCGAGAUCGGAAGAGCACACGU | 4.6 ± 0.4 nM |
| target 2 MT 5'PFS CAU 3'PFS UAC (mixed) RNA 1: CACCCGUGCAAAAUUGCAGGGGUCUAAAACCUUCUCCAAAUUGUUUCAUCCU RNA 2: GGGAAUGGAUCCACAUCUACGAAUUCCAUAGGAUGAAACAAUUUGGAGAAGUACAGAUCGGAAGAGCACACGU | 3.7 ± 0.7 nM |
| target 2 MT 5'PFS CGA 3'PFS UCA (mixed) RNA 1: CACCCGUGCAAAAUUGCAGGGGUCUAAAACCUUCUCCAAAUUGUUUCAUCCU RNA 2: GGGAAUGGAUCCACAUCUACGAAUUCCGAAGGAUGAAACAAUUUGGAGAAGUCAAGAUCGGAAGAGCACACGU | ~26 nM |
| target 2 MT 5'PFS CAU 3'PFS UAG (mixed) RNA 1: CACCCGUGCAAAAUUGCAGGGGUCUAAAACCUUCUCCAAAUUGUUUCAUCCU RNA 2: GGGAAUGGAUCCACAUCUACGAAUUCCAUAGGAUGAAACAAUUUGGAGAAGUAGAGAUCGGAAGAGCACACGU | 5.6 ± 1.2 nM |
| target 2 MT 5'PFS GCU 3'PFS CAC (mixed) RNA 1: CACCCGUGCAAAAUUGCAGGGGUCUAAAACCUUCUCCAAAUUGUUUCAUCCU RNA 2: GGGAAUGGAUCCACAUCUACGAAUUCGCUAGGAUGAAACAAUUUGGAGAAGCACAGAUCGGAAGAGCACACGU | 10 ± 1.7 nM |
| target 2 MT 5'PFS GGU 3'PFS CUG (mixed) RNA 1: CACCCGUGCAAAAUUGCAGGGGUCUAAAACCUUCUCCAAAUUGUUUCAUCCU RNA 2: GGGAAUGGAUCCACAUCUACGAAUUCGGUAGGAUGAAACAAUUUGGAGAAGCUGAGAUCGGAAGAGCACACGU | 14 ± 1.3 nM |
| target 2 MT 5'PFS GUA 3'PFS UUU (mixed) RNA 1: CACCCGUGCAAAAUUGCAGGGGUCUAAAACCUUCUCCAAAUUGUUUCAUCCU RNA 2: GGGAAUGGAUCCACAUCUACGAAUUCGUAAGGAUGAAACAAUUUGGAGAAGUUUAGAUCGGAAGAGCACACGU | 62 ± 18 nM |
| target 2 MT 5'PFS UUU 3'PFS CCG (mixed) RNA 1: CACCCGUGCAAAAUUGCAGGGGUCUAAAACCUUCUCCAAAUUGUUUCAUCCU RNA 2: GGGAAUGGAUCCACAUCUACGAAUUCUUUAGGAUGAAACAAUUUGGAGAAGCCGAGAUCGGAAGAGCACACGU | 9.8 ± 1 nM |
| target 2 MT 5'PFS GUA 3'PFS UUC (mixed) RNA 1: CACCCGUGCAAAAUUGCAGGGGUCUAAAACCUUCUCCAAAUUGUUUCAUCCU RNA 2: GGGAAUGGAUCCACAUCUACGAAUUCGUAAGGAUGAAACAAUUUGGAGAAGUUCAGAUCGGAAGAGCACACGU | 42 ± 11 nM |
| target 2 MT 5'PFS CAU 3'PFS UAA (mixed) RNA 1: CACCCGUGCAAAAUUGCAGGGGUCUAAAACCUUCUCCAAAUUGUUUCAUCCU RNA 2: GGGAAUGGAUCCACAUCUACGAAUUCCAUAGGAUGAAACAAUUUGGAGAAGUAAAGAUCGGAAGAGCACACGU | 4.7 ± 0.8 nM |
